16 sequences from a protein production outcome set (Wang et al. 2014) can be followed below.

A short description of this data set: label from the status in PepcDB records.
Turning to “MIKKIHRWLPLLVLIGLLVLFFSLHLDKYLSFNALRENHALLIAWTQTHYFIAPLIFIVFYTTAVAISIPGAVLLTLTGGFLFGVFWGVLFVVISATLGATILFFAVRTALGDWFAQKASGWIERMRQGFQHNAFSYLVTLRLIPLFPFWAVNIVPALLNIRAKTFITATFIGIIPGTTVYVMVGNGLSQIFAANQTPNLGIIFELQILGPLLALAVLSLMPVLYQFSTRKHQNHHSFSDISRVINCDLAIIGGGAGGLSLASGCSQLGLKVVLVESGKMGGDCLNYGCIPSKSLLAAAKTFYYAKHATHFGVHTEAIKINFQQVMQHVHQIIDNISEHDSVQRFESLGVQVIKQVGKFLNPDTLQAGDSIIKAKRFVVATGSSPFIPPIPGLDAVSYFTNETIFDLKEQPEHLIVIGGGPIGCELAQAFAMLGSKVTLLEGLNLLPKDDPDCVAVLRTQMKSMSIVIHEQIEITQINSHPDTGISVCFEFQNTQFTITASHLLIATGRRANVKPLDLEKAGVKLTSKGVEVNKYLQTSNKKIYALGDVTGLYQFTHMASYQASIVLRNIVFKLPSKVDYRAIPWVTYTDPELAHVGIGVSDALKHPDAQIIEWPFVDNDRAQTERSLNGKIKIITDKKARILGVTIVGPHAGELILPWVMAIREKKNLRSFTDVIVPYPTLSEISKRVAGSFYAPKLFSNKTRMLVRWLQKIG”, the protein production entry was “failed”.

Regarding “MLVRLKETDQRTMISRIKALAPPVQKAGAALLIDGHAELVARGGADGAHLPGIAALKEALPSLKPDRIAGVGGLTTRHHSMDAGEIGADYLLFGEPDAKGQRPSSEAIAERLDWWAELFEPPCVGFATSLEEAYDFAASGADFVLVGEFVWADPRGAKAALIEADATIKKAHAAALASQNPAGEHG”, the protein production result is listed as “failed”.

On to “MRMAATAPAFPELEGRHPCFSTTAEGHARAARLHLPVSPGCNIDCAFCIRDFNRRDQRPGVATRLLTPEQAVAIVARALELCPSINVVGIAGPGDPLATPHALQTFALVRERWPELVLCLSTNGLMLPDRIDEIAGLGISTLTVTVNAVDPQIQAQVTPKIAWQRKRLNGVVAGERLIANQLEGIARAAAHGLTVKVNTVLIPTVNDHHIETIAERVAAAGANLINIIPLIPQHGFAHLKPPGMLMRYAARTAAEKYLRVFTHCQRCRADACGIPGVSDYAQQLYGDDIVAEPTFSHG”, for which the protein production result is given as “failed”.

For “MNRARDWLEQARHNLRHAQGSLGLGDYAWACFAAQQAAEAALKGLHLARGQVAWGHSILDLLADLPEDVDVPEDLVEAAKVLDKYYIPTRYPDAHPAGPAARHYTRLEAEEALDLAQKILAFVEEKL”, the protein production entry was “not failed”.

Regarding “MNRICELLGIEHPIISGGMVWCSGWKLASAVSNCGGLGLIGAGSMHPDNLEHHIRSCKAATDKPFGVNVPLLYPEMDKIMEIIMREHVPVVVTSAGSPKVWTAKLKAAGSKVIHV”, the protein production result is “failed”.

With “AELQMLLEEEIPSGKRALIESYQNLTRVADYCENNYIQATDKRKALEETKAYTTQSLASVAYQINALANNVLQLLDIQASQLRRMESSINHISQTVDIHKEKVARREIGILTTNKNTSRTHKIIAPANMERPVRYIRKPIDYTVLDDVGHGVKWLKAKHGNNQPARTGTLSRTN”, the protein production entry is recorded as “failed”.

With “MNSNPFVSVVMSVYNGGEFLKDAINSILSQSYKNFEFIIINDGSSDNFSEILELYDDERIKVLNNQENKGLVYSLNRGLLESIGKYIVRMDADDISLPNRIEKQVEFMEREPEVGVCGSYIEIFGDTIKRKVQRFPSNVNVNEAFLLFSTCLAHPSVIIRKSIVDKYKLRYDDRYLHAEDYAIWCQAVKYTKISNIREVLLKYRILESSVTRQANKNFQSRFDVHKSIYKDIFRNKGIDYTEKELYLHFIISDNNRFRNQALTIRPSEINAHLTKILSHYRGASNYKYIAFLVNKRGLSLSRWYSESRGFYFIMYLFKFLYYKIQIKKLEHHHHHH”, the protein production entry is listed as “failed”.

Take “MGFIGSGSIGGTIARLAVAAGHQVVLSNSRGPGSLADTVAELGPRASAATSEEAAAAGDIVVVTVPVTAFPDLPAAPLAGKTVIDTCNYGPERDGHIPELDGTSLTSSELLLRYVPGAMLVKGFNNIYFKHLLSLARPAGATDRSYLPIAGDLAPAKAAATEFIDSIGYGVVDAGLLADSWRQATGTPVWGTPYGPPSNEMGRPTGPGAIRAALATATR”: the protein production entry was “failed”.

Turning to “MQAMTERLEAMLAQGTDNMLLRFTLGKTYAEHEQFDAALPHLRAALDFDPTYSVAWKWLGKTLQGQGDRAGARQAWESGLAAAQSRGDQQVVKELQVFLRRLAREDAQHGG”, the protein production result is given as “failed”.

Turning to “MGGAVLAQPPGPTPTDGVPLRSSQPAVQVEPAPTTATAAPIERLFPKLTGRVVDTAQLLTPSAQVYLAQMLERLEQTTTDQVVVATVPSLGGHSIEEFGLQLGRHWGIGRKDKNNGVLLLVAKDDRKVRIEVGYGLEGRLNDIVAHFIIDGSIIPYFKDDLYSSGIIAGATSIVSVLSSTDRPMLVYRSVEKNWYQDIEWMWWFERLFYLVFVGVPLFGFLTQWRSGDDSPVVASGDSARRETRAERDTGSSSSAFDWFDSSSSSSSSSSDSFSGGGGSFGGGGASGSW”, the protein production entry is reported as “failed”.

Turning to “MAEEKVKDEAMQIMGMFQILPRLVVFDLDYTLWPFYCECRSKREMPSMYPQAKGILSALKEKGIEMAIASRSPTSDIANTFLDKLNIKPMFVAKVSKMGVTSILVGDGVTLGAFRQGLTEFTQNHNSIEKNKQVWRDKYSGKPTSSETDKD”, the protein production result is “failed”.

As to “RLEITPEAFLSDPTPAGVAARAAYELDPDIHVLPLADGTGEPLYLLHPSGGDVLCYMGLARELQGRPVYAVADPGLEDTPMPVDLDVVALTYGRVIMAHRAGLADTGKHGVREATAGYLIGGWSMGGTVAQRVAVQWRDQGIAVGALVLIDSNSPDRIRALTGMNDREVDAEFARRYLRSLQAFGAKAVDASAVTESDPASGVARALAGQGLALKDVERRISVFTRHLAGLAQLRVRPLVDVPTLLVIAEHQSPANSGVGMGVDDARDTEHLGWDDNLPTSTTEIMVPGHHYSVLSAPGLEIISEQIRELLA”, the protein production entry is “failed”.

Turning to “MTLKAGIVGIGMIGSDHLRRLANTVSGVEVVAVCDIVAGRAQAALDKYAIEAKDYNDYHDLINDKDVEVVIITASNEAHADVAVAALNANKYVFCEKPLAVTAADCQRVIEAEQKNGKRMVQIGFMRRYDKGYVQLKNIIDSGEIGQPLMVHGRHYNASTVPEYKTPQAIYETLIHEIDVMHWLLNEDYKTVKVYFPRQSSLVTTLRDPQLVVMETTSGINIVVEVFVNCQYGYDIHCDVTGEKGMAELPTVASAAVRKAAKYSTDILVDWKQRFIDAYDIEFQDFFDRLNAGLPPAGPTSWDGYLAAVTADACVKSQETGNTEIVELPSKPDFYK”, the protein production result is “not failed”.

In the case of “MNINGIKLLSSRAVSKLGDVFYDYGNSTWIASMGGLGQKILGIYQIVELLVSIVLNPFGGALADRFQRRKILLITDAICAIMCFLLSFIGDDKVMVYGLIVANAILAVSNAFSSPAYKSYIPEIVDKADIITYNANLETIVQIISVSSPVLGFLIFNNFGIRITLIVDAITFLISFLFLYAIKVERVQLSKQEKVAIKNILADIADGFTYIKKEKEIMFFLIIAALLNTFLAMFNYLLPFTNSLLKTSGAYATILSISAIGSIIGALIARKIKSSINSMLSMLVFSSLGVIVMGFPSLFELPIWIPYSGSFLFNSLLTMFNIHFFSQVQIRVDEAYMGRVMSTIFTIAIMFMPIGTLFMTIFSFALSNVSFIVIGCAIAILGGLGFSYSKKQF”, the protein production result was “failed”.

For “MQRVLGFSTCSYSWIAQSFNRFHPRCIQPTCFRSKVTKLCPKRPRSSLLSDNNATKYPQKAIYLTAQVKLPQISEVQNATFDQCLPLARNICFRLQEEPQDENAYQVLKELLSREEGARAFFVEYLSDYELSLPDKKPPFKLEKLLKDCDEYVPNLLARNLAMSVAKEVDLANDSKNAENEEVDDTGSGSWSDSVEESSGGPTMVKERTALLIDSIASSEIARELVALWFSIRSRKGKYVHFLERQKFRKDQLDVIQRTLEVFIGA”, the protein production result is listed as “failed”.

For “MIIADNIKQFHSIRNSLIKQQKIGFVPTMGALHNGHISLIKKAKSENDVVIVSIFVNPTQFNNPNDYQTYPNQLQQDIQILASLDVDVLFNPSEKDIYPDGNLLRIEPKLEIANILEGKSRPGHFSGMLTVVLKLLQITKPNNLYLGEKDYQQVMLIKQLVKDFFINTKIIVCPTQRQPSGLPLSSRNKNLTSTDIEIANKIYEILRQDDFSNLEELTNKINSTGAKLQYIQKLNNRIFLAFYIGKVRLIDNFLKETGPSC”, the protein production entry is recorded as “not failed”.
